Measurements taken from PMC7901475.

Molecular target: T1, PsdR (Pseudomonas aeruginosa PAO1?) (UniProt Q9HVS2)
T1 sequence: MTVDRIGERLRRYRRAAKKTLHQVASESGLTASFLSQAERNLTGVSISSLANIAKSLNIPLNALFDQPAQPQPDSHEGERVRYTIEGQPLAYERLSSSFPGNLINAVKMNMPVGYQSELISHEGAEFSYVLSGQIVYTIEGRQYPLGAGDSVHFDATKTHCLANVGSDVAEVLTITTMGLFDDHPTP
Assay: EMSA
Details: EMSA: 0.5 nM Cy5 probe, 10 mM Tris-HCl pH 8, 50 mM KCl, 10 mM MgCl2, 10% glycerol, 0.1 mg/ml BSA, 25 ng/ul poly(dI-dC), 15 min at 25 C; competition with 100 nM …

With “CCCGAACCCCTATTTTTAAGTGTGACTGAAAATTTGTTTTGACCTGAATCAGTTCTCGACTTAAATTTCAGCCCGGTCCAGACGAGGAGAACA (double strand) [pPA4498 (mdpA promoter) half-site mutant]” as the sequence, how does the binding read?
Its binding is “binds more weakly”.

With “CCCGAACCCCTATTTTTAAGTGTGACTGAAAATTTGTTTTGACCTGAATTTAAGCTCGACTTAAATTTCAGCCCGGTCCAGACGAGGAGAACA (double strand) [pPA4498 (mdpA promoter) wild type]” as the sequence, how does the binding read?
The binding was “binds”.
